{
  "source": "paper PMC8034623",
  "binders": {"B1": {"name": "GC-rich control 51-bp (dsDNA)", "DNA 1": "CTAAATTTATCAATACCGCGTCACGGAGGGGTGCGCCATTGTTCTACAGAT", "DNA 2": "ATCTGTAGAACAATGGCGCACCCCTCCGTGACGCGGTATTGATAAATTTAG"}, "B2": {"name": "repDNA 51-bp probe (dsDNA)", "DNA 1": "CTAAATTTATCAATATTATTGATAAAATTATCAATATATTGTTCTACAGAT", "DNA 2": "ATCTGTAGAACAATATATTGATAATTTTATCAATAATATTGATAAATTTAG"}, "B3": {"name": "actDNA 51-bp probe (dsDNA)", "DNA 1": "CTAAATTTATCAATAATAATGACATTACTGTATATAAATTGTTCTACAGAT", "DNA 2": "ATCTGTAGAACAATTTATATACAGTAATGTCATTATTATTGATAAATTTAG"}, "B4": {"name": "AM1 (T2A) (dsDNA)", "DNA 1": "CTAAATTTATCAATAAAAATGACATTACTGTATATAAATTGTTCTACAGAT", "DNA 2": "ATCTGTAGAACAATTTATATACAGTAATGTCATTTTTATTGATAAATTTAG"}, "B5": {"name": "AM3 (T18A) (dsDNA)", "DNA 1": "CTAAATTTATCAATAATAATGACATTACTGTAAATAAATTGTTCTACAGAT", "DNA 2": "ATCTGTAGAACAATTTATTTACAGTAATGTCATTATTATTGATAAATTTAG"}, "B6": {"name": "AM7 (A3C) (dsDNA)", "DNA 1": "CTAAATTTATCAATAATCATGACATTACTGTATATAAATTGTTCTACAGAT", "DNA 2": "ATCTGTAGAACAATTTATATACAGTAATGTCATGATTATTGATAAATTTAG"}, "B7": {"name": "AM4 (A17C, T18A) (dsDNA)", "DNA 1": "CTAAATTTATCAATAATAATGACATTACTGTCAATAAATTGTTCTACAGAT", "DNA 2": "ATCTGTAGAACAATTTATTGACAGTAATGTCATTATTATTGATAAATTTAG"}, "B8": {"name": "AM6 (A4T) (dsDNA)", "DNA 1": "CTAAATTTATCAATAATATTGACATTACTGTATATAAATTGTTCTACAGAT", "DNA 2": "ATCTGTAGAACAATTTATATACAGTAATGTCAATATTATTGATAAATTTAG"}, "B9": {"name": "AM2 (A4T, T18A) (dsDNA)", "DNA 1": "CTAAATTTATCAATAATATTGACATTACTGTAAATAAATTGTTCTACAGAT", "DNA 2": "ATCTGTAGAACAATTTATTTACAGTAATGTCAATATTATTGATAAATTTAG"}, "B10": {"name": "AM5 (A1T, A4T, A22T) (dsDNA)", "DNA 1": "CTAAATTTATCAATATTATTGACATTACTGTATATATATTGTTCTACAGAT", "DNA 2": "ATCTGTAGAACAATATATATACAGTAATGTCAATAATATTGATAAATTTAG"}},
  "test_in_all_cases": "EMSA",
  "key": {"LuxR [1]": {"target": "T1, LuxR (Vibrio alginolyticus, UniProt B4X9Q4 1-204)", "T1 sequence": "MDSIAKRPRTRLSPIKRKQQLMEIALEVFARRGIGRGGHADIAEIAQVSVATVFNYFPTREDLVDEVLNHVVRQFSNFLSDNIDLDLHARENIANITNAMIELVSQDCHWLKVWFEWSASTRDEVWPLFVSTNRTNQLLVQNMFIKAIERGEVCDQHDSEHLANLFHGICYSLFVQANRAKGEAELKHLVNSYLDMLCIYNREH"}, "LuxR R11A": {"target": "T2, LuxR R11A (Vibrio alginolyticus, UniProt B4X9Q4 1-204, R11A)", "T2 sequence": "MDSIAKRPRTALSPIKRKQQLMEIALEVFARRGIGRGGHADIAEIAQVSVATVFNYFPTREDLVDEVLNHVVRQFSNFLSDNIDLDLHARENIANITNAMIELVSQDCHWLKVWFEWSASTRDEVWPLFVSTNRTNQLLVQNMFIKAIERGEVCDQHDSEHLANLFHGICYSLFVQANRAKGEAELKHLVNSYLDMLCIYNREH"}, "LuxR R9A": {"target": "T3, LuxR R9A (Vibrio alginolyticus, UniProt B4X9Q4 1-204, R9A)", "T3 sequence": "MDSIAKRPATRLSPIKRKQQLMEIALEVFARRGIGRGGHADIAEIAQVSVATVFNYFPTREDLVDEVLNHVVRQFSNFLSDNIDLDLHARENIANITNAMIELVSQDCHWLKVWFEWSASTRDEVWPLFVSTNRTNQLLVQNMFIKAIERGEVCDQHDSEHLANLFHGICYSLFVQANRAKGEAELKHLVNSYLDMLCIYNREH"}, "LuxR R9/11A": {"target": "T4, LuxR R9/11A (Vibrio alginolyticus, UniProt B4X9Q4 1-204, R9A;R11A)", "T4 sequence": "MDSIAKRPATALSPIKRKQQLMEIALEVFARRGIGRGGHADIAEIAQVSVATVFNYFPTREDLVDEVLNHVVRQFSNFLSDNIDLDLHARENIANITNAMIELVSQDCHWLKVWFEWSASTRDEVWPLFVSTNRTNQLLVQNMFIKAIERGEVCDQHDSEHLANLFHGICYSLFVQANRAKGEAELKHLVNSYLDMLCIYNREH"}, "LuxR K16A": {"target": "T5, LuxR K16A (Vibrio alginolyticus, UniProt B4X9Q4 1-204, K16A)", "T5 sequence": "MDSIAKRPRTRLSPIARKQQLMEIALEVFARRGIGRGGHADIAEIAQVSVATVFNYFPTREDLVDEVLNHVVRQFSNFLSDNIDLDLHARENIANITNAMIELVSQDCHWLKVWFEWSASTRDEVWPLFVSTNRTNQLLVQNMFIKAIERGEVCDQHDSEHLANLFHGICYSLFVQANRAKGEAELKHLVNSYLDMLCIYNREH"}, "LuxR ΔLuxR-arm": {"target": "T6, LuxR ΔLuxR-arm (Vibrio alginolyticus, UniProt B4X9Q4 12-204, del2-11)", "T6 sequence": "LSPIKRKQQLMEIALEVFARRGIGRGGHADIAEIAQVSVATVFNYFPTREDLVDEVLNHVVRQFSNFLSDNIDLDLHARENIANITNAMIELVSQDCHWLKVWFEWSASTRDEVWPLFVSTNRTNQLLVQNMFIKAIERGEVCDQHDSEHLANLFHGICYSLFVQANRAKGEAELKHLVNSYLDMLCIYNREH"}, "LuxR [2]": {"target": "T1, LuxR", "remark": "listed apart in the source"}, "LuxR [3]": {"target": "T1, LuxR", "remark": "listed apart in the source"}},
  "note": "Read-outs that look alike come from different tables or passages of the source.",
  "data": [
    {"binder": "B1", "values": [
      {"measurement": "binding result", "setting": "LuxR [1]", "result": "no binding"}
    ]},
    {"binder": "B2", "values": [
      {"measurement": "Kd", "setting": "LuxR R11A", "result": 1060, "unit": "nM"},
      {"measurement": "Kd", "setting": "LuxR [1]", "result": 157, "unit": "nM"},
      {"measurement": "Kd", "setting": "LuxR R9A", "result": 434, "unit": "nM"}
    ]},
    {"binder": "B3", "values": [
      {"measurement": "binding result", "setting": "LuxR R11A", "result": "no binding"},
      {"measurement": "binding result", "setting": "LuxR R9/11A", "result": "no binding"},
      {"measurement": "Kd", "setting": "LuxR K16A", "result": 329, "unit": "nM"},
      {"measurement": "Kd", "setting": "LuxR [1]", "result": 449, "unit": "nM"},
      {"measurement": "Kd", "setting": "LuxR R9A", "result": 698, "unit": "nM"},
      {"measurement": "binding result", "setting": "LuxR ΔLuxR-arm", "result": "no binding"}
    ]},
    {"binder": "B4", "values": [
      {"measurement": "Kd", "setting": "LuxR [1]", "result": 1690, "unit": "nM"}
    ]},
    {"binder": "B5", "values": [
      {"measurement": "binding result", "setting": "LuxR [2]", "result": "binds"}
    ]},
    {"binder": "B6", "values": [
      {"measurement": "Kd", "setting": "LuxR [1]", "result": 636, "unit": "nM"}
    ]},
    {"binder": "B7", "values": [
      {"measurement": "binding result", "setting": "LuxR [2]", "result": "binds"}
    ]},
    {"binder": "B8", "values": [
      {"measurement": "binding result", "setting": "LuxR [3]", "result": "binds"}
    ]},
    {"binder": "B9", "values": [
      {"measurement": "binding result", "setting": "LuxR [2]", "result": "binds"}
    ]},
    {"binder": "B10", "values": [
      {"measurement": "binding result", "setting": "LuxR [3]", "result": "binds"}
    ]}
  ]
}
